The values that follow come from PMC13577001, “Crystal structures of the μ2 subunit of clathrin-adaptor protein 2 in complex with peptides derived from human papillomavirus 16 E7” (The Journal of Microbiology, 2025).

Read-outs that look alike come from different tables or passages of the source. No end group written: not given here.

Assay [1] concerns the target T1, AP2-μ2 (μ2 subunit of clathrin-adaptor protein 2, residues 158–435) (Rattus norvegicus, UniProt P84092).
T1 construct: recombinant AP2-μ2 protein (residues 158–435) expressed in E. coli; made in house; host or cells: Escherichia coli BL21(DE3) RIL
T1 sequence (P84092 158-435): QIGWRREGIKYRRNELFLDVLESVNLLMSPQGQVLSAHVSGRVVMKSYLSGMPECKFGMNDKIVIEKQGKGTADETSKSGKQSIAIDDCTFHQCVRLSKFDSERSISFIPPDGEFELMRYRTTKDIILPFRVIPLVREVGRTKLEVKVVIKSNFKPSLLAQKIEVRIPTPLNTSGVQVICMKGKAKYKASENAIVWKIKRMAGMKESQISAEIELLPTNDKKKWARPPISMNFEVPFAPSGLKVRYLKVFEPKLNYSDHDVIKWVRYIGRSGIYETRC
Put plainly: ITC binding of HPV E7-derived synthetic peptides to recombinant wild-type AP2-μ2. The settings on record: for binding to AP2-μ2 in ITC (result in words): peptide titrated into wild-type recombinant AP2-μ2. As to the method: A DNA fragment encoding residues 158–435 of the μ2 subunit of rat AP2 was cloned into a modified pET28a plasmid (Novagen, USA) to produce a recombinant protein tagged with (His)10−maltose-binding protein. The recombinant protein was expressed in Escherichia coli BL21(DE3) RIL cells (Novagen) grown in Luria-Bertani medium at 18°C for 16 h following induction with 0.5 mM isopropyl β-D-thiogalactopyranoside. Proteins were purified using Ni-NTA affinity chromatography (QIAGEN, Germany), followed by size-exclusion chromatography on a HiLoad 26/600 Superdex 200 prep grade column (Cytiva, USA). The (His)10−maltose-binding protein tag was cleaved by TEV protease and removed during subsequent purification steps. Final protein samples were equilibrated in a buffer containing 50 mM Tris-HCl (pH 7.5), 500 mM NaCl, and 3 mM β-mercaptoethanol. […] Crystals were obtained using the sitting-drop vapor diffusion method at 18°C by from a mixture of 1 μl protein solution (10 mg/ml) and 1 μl precipitant solution. […] X-ray diffraction data were collected at beamlines 5C and 7A of the Pohang Accelerator Laboratory (Korea) and processed using HKL2000 ([Otwinowski and Minor, 1997]). Molecular replacement was performed using Phaser ([McCoy et al., 2007]) with the structure of AP2-μ2 complexed with a PIP5KIγ-derived peptide (Protein Data Bank [PDB] code: 3H85) used as the search model ([Kahlfeldt et al., 2010]). Model building and refinement were performed using Coot ([Emsley and Cowtan, 2004]) and PHENIX ([Adams et al., 2010]), respectively.
Recombinant AP2-μ2 protein harboring R402A∙K405A mutations was prepared and purified using the same protocol as that used for the wild-type protein. […] All peptides were dialyzed against the same buffer used for AP2-μ2 purification. Isothermal titration calorimetry (ITC) was performed using recombinant AP2-μ2 proteins and synthetic peptides as previously described ([Jung et al., 2023]; [Lim et al., 2021]).
Fig. 2. ITC analysis of the effect of the Y-x-x-Φ motif on complex formation. Each peptide (0.2 mM) was titrated into 10 μM recombinant AP2-μ2 as indicated. KD and Ka values were deduced from curve fitting of the integrated heat per mole of added ligand. Mutated residues are highlighted in blue.
Fig. 3. ITC analysis of the effect of the acidic cluster region on complex formation. Each peptide was titrated into wild-type (A) or R402A∙K405A mutant (B) recombinant AP2-μ2 as indicated. KD and Ka values were obtained by curve-fitting of the integrated heat per mole of added ligand. Mutated residues are highlighted in blue. […] Negatively charged cluster residues are marked in red.

The target of a further assay is PIP5KIγ (Homo sapiens). Put plainly: ITC. The settings on record: cited from earlier work.
Assay [2] has as its target integrin α4 (Homo sapiens). Put plainly: ITC. The settings on record: cited from earlier work.
Assay [3] has as its target T2, μ2 subunit of clathrin-adaptor protein 2 (AP2-μ2), residues 158–435, wild type (rat, UniProt P84092 158-435).
T2 construct: also called recombinant AP2-μ2; μ2 subunit of rat AP2; source: E. coli BL21(DE3) RIL, purified (Ni-NTA, SEC)
T2 sequence (looked up): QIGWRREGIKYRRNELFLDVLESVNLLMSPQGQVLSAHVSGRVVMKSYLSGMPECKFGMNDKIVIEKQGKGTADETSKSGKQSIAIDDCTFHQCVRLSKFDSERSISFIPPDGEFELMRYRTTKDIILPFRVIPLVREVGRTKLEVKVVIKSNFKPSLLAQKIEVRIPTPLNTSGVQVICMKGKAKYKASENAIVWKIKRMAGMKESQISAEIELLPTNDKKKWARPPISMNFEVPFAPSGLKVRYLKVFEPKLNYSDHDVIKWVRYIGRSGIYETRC
Nature of the assay: ITC; peptide titrated into recombinant AP2-μ2; 50 mM Tris-HCl (pH 7.5), 500 mM NaCl, 3 mM β-mercaptoethanol; in Fig. 2 peptide 0.2 mM into 10 μM AP2-μ2. The settings on record: both partners purified.

The target in assay [4] is T3, μ2 subunit of clathrin-adaptor protein 2 (AP2-μ2), residues 158–435, wild type (rat, UniProt P84092 158-435).
T3 chain: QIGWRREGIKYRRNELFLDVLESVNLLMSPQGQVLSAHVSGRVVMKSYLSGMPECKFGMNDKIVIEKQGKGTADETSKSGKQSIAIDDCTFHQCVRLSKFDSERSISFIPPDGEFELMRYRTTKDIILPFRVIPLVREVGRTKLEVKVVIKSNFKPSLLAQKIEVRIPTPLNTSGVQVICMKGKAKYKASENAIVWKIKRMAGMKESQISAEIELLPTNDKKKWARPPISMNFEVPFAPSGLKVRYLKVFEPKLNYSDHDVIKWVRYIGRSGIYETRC
Nature of the assay: ITC.

Assay [5] addresses T3, μ2 subunit of clathrin-adaptor protein …. Nature of the assay: ITC.
For assay [6], the target named is T4, AP2-μ2 (residues 158–435) R402A∙K405A mutant (rat, UniProt P84092 158-435, R402A | K405A).
T4 construct: also called R402A∙K405A mutant recombinant AP2-μ2; source: E. coli, purified by the same protocol as the wild-type protein
T4 sequence: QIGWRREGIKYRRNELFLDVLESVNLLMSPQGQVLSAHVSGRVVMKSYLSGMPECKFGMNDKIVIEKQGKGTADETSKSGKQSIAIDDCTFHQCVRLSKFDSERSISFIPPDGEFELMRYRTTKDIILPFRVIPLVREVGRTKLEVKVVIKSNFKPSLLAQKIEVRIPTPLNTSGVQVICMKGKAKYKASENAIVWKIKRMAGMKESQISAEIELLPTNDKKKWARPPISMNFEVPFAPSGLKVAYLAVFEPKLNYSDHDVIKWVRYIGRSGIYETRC
Put plainly: ITC; peptide titrated into recombinant AP2-μ2; 50 mM Tris-HCl (pH 7.5), 500 mM NaCl, 3 mM β-mercaptoethanol; in Fig. 2 peptide 0.2 mM into 10 μM AP2-μ2. To be noted: both partners purified.

Regarding “Y25H: 11-mer HPV16 E7 residues 22–32 synthetic peptide with Y25H mutation (LYCHEQLNDSS)”, in assay [1], the “binding to AP2-μ2 in ITC (result in words)” value was “severely impaired”.
For LHCYEELSEEETEEEPRF [HPV15 E7(24–41)], the Kd in assay [1] was 13.3 µM.
On to “L28A: 11-mer HPV16 E7 residues 22–32 synthetic peptide with L28A mutation (LYCYEQANDSS)”, for which, in assay [1], the “binding to AP2-μ2 in ITC (result in words)” value was “severely impaired”.
Still for that read-out and setting: next, “residues 25–42 of HPV18 E7: 18-mer peptide lacking the Y-x-x-Φ motif, residues 25–42 of HPV18 E7 (LLCHEQLSDSEEENDEID; UniProt P06788 25-42, looked up, fragment)”: “did not bind”; “Y25N: 11-mer HPV16 E7 residues 22–32 synthetic peptide with Y25N mutation (LYCNEQLNDSS)”: “severely impaired”.
As for AP2-μ2 (from UniProt Q96CW1), the Kd with PIP5KIγ (Homo sapiens) was 6 µM; in assay [2], 72 µM.

B1: HPV16 E7(22–32; S31E∙S32E) 11-mer phosphomimetic peptide (peptide)
peptide: LYCYEQLNDEE
notes: also called 11-mer phosphomimetic mutant HPV16 E7 peptide; source: synthetic peptide, bought: Dandicure (Korea)
As for B1, the Kd in assay [3] came to 1.54 µM.

B2: HPV16 E7(22–32) wild-type 11-mer peptide (peptide)
peptide: LYCYEQLNDSS
notes: source: synthetic peptide, bought: Dandicure (Korea)
On to B2, for which, in assay [3], the equilibrium dissociation constant (Kd) was 5.88 µM. In assay [4], the Ka is 170000 M⁻¹.

B3: HPV16 E7(22–39; S31E∙S32E) 18-mer phosphomimetic peptide (peptide)
peptide: LYCYEQLNDEEEEEDEID
notes: HPV16 E7 residues 22–39 with S31E and S32E; source: synthetic peptide, bought: Dandicure (Korea)
Regarding B3, the Kd in assay [3] was found to be 2.34 µM.

B4: HPV16 E7(22–39) wild-type 18-mer peptide (peptide)
peptide: LYCYEQLNDSSEEEDEID
notes: HPV16 E7 residues 22–39; source: synthetic peptide, bought: Dandicure (Korea)
On to B4, for which the Kd in assay [3] was found to be 3.34 µM. The Ka in assay [5] was 299000 M⁻¹.

B5: HPV16 E7(16–32; S31E∙S32E) 17-mer peptide (peptide)
peptide: QPETTDLYCYEQLNDEE
notes: as for B2
B5: the equilibrium dissociation constant (Kd) was 1.64 µM in assay [3] and 8.26 µM in assay [6].
